According to patent US20030186841A1:

Tests used:
Experiment in all cases: cell-based or functional assay
Cf2-PBD-VP64 (human) = Cf2-PBD-VP64 (human) (UniProt P06401)
ER-KRAB (mouse; human) = ER-KRAB (mouse; human) (UniProt P19785)
ER-VP64 (mouse) = ER-VP64 (mouse) (UniProt P19785)

Chain of ER-KRAB (mouse; human) (P19785 other isoform, or with tags, fused parts or gaps): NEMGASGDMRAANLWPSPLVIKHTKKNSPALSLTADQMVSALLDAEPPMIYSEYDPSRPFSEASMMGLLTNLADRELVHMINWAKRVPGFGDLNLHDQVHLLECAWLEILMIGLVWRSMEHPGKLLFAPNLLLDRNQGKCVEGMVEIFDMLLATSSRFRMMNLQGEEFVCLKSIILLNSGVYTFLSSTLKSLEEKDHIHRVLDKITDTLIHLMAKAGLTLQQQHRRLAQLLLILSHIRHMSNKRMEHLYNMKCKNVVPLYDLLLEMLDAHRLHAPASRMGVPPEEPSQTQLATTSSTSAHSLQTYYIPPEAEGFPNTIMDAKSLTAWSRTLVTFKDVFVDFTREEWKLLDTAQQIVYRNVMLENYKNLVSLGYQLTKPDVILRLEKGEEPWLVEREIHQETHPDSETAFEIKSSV
Chain of C7-PBD-VP64 (P06401 640-914): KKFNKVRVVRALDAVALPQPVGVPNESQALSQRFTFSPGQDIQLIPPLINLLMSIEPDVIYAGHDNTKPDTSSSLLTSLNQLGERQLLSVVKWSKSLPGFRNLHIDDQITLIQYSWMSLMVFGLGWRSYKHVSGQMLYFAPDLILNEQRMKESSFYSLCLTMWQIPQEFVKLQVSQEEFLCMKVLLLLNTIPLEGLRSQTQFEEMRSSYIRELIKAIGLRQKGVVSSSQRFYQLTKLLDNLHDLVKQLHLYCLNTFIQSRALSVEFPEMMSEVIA
Chain of Cf2-PBD-VP64 (human) (P06401 640-914): as above

## C7-PBD-VP64 (from UniProt P06401 640-914)
Cf2-PBD-VP64 (human)
  luciferase assay, C7-Cf2 TATA reporter, ligand-dependent change in transcription: 2 fold

## E2C-ER (from UniProt P19785 282-599)
ER-KRAB (mouse; human)
  luciferase assay, tamoxifen-dependent repression of the erbB-2 promoter: 2.9 fold
ER-VP64 (mouse)
  luciferase assay, erbB-2 promoter activity in HeLa cells, with and without Tamoxifen: 3 fold
  luciferase assay, tamoxifen-dependent activation of the erbB-2 promoter: 5.3 fold
